Groups on a side chain read outwards from the residue. No end group written: not given here. *: point of attachment. DOTA = O=C(O)CN1CCN(CC(=O)O)CCN(CC(=O)*)CCN(CC(=O)O)CC1
Legend:
[1] = biological target: T1, Human Serum Albumin (HSA) (human, UniProt P02768 25-609); assay: SPR (Biacore T200), HSA immobilised on CM5 chip
Method: (§1) Target binding analysis was performed on a Biacore T200 system (GE Healthcare, Stockholm, Sweden) by injecting analytes over a CM5 chip immobilized with Murine Serum Albumin (MSA), Human Serum Albumin (HSA) and Human Epidermal growth factor receptor 2 (HER2) to a response level of […] each. Experimental parameters have been described previously (Garousi 2019).

[2] = biological target: T2, Murine Serum Albumin (MSA) (murine, UniProt P07724 25-608); assay: SPR (Biacore T200), MSA immobilised on CM5 chip
Method: as §1

[3] = biological target: T3, Human Epidermal growth factor receptor 2 (HER2), immobilised on a CM5 chip (human, UniProt P04626 23-652, limits assumed); assay: SPR (Biacore T200), HER2 immobilised on CM5 chip
Method: as §1

[4] = biological target: T4, HER2 on living HER2-expressing cells (SKOV-3, BT-474) (human, UniProt P04626 23-1255); assay: LigandTracer, living SKOV-3 cells; KD1 (stronger of two interactions)
T4 construct: whole, on cells; also called HER2 receptors in cells; HER2 on living cells
Method: (§2) Cell-lines were purchased from American Type Culture Collection (ATCC, Manassas, Va.). […] The affinity of radiolabeled conjugates binding to living HER2-expressing SKOV-3 cells was determined using LigandTracer (Ridgeview Instruments AB) by an established method as described previously (Tolmachev 2014).

[5] = biological target: T4, HER2 on living HER2-expressing cells …; assay: LigandTracer, living SKOV-3 cells; KD2 (weaker of two interactions)
Method: as §2

[6] = biological target: T3, Human Epidermal growth factor receptor …; assay: SPR, successive injections without regeneration, on HER2; concentrations not given
[7] = biological target: T1, Human Serum Albumin (HSA); assay: SPR, HSA immobilised on CM5 chip, analyte injected at 3.125-50 nM
Method: (§3) In the graphs of FIG. 4, the X axis represents time [s] and the Y axis represents Response Unit [RU].
as §1

[8] = biological target: T2, Murine Serum Albumin (MSA); assay: SPR, MSA immobilised on CM5 chip, analyte injected at 3.125-50 nM
Method: as §3, §1

[9] = biological target: T3, Human Epidermal growth factor receptor …; assay: SPR, HER2 immobilised on CM5 chip, analyte 3.125-50 nM with 10x excess HSA
Method: as §3, §1

T1 sequence (P02768 25-609 limits assumed): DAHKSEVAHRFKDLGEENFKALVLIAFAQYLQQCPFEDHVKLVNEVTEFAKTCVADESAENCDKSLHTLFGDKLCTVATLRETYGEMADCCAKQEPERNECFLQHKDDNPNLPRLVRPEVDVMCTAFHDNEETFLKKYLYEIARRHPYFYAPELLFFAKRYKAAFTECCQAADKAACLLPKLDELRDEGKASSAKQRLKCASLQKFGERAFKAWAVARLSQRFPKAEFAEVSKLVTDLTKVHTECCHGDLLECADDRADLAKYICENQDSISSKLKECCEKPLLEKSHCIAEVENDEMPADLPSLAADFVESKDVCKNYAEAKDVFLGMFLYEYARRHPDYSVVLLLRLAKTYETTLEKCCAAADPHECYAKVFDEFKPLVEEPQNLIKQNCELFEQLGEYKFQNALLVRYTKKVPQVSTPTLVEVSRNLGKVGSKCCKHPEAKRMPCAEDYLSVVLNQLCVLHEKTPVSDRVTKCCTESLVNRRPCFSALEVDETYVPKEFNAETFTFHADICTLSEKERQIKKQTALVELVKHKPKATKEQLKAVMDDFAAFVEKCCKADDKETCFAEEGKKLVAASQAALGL

B1: MG-DEAVDANS-ADAPT6-(SSSG)3-ABD035-GSSC (designed binder)
chain: MGDEAVDANSLAAAKETALYHLDRLGVADAYKDLIDKAKTVEGVKARYFEILHALPSSSGSSSGSSSGLAEAKVLANRELDKYGVSDFYKRLINKAKTVEGVEALKLHILAALPGSSC
Binder B1 has a Kd [1] of 0.0498 nM, a Kd [2] of 1.76 nM and a Kd [3] of 4.67 nM.

B2: MG-DEAVDANS-ADAPT6-(SSSG)3-ABD035-GSSC-DOTA-177Lu (designed binder)
chain: MGDEAVDANSLAAAKETALYHLDRLGVADAYKDLIDKAKTVEGVKARYFEILHALPSSSGSSSGSSSGLAEAKVLANRELDKYGVSDFYKRLINKAKTVEGVEALKLHILAALPGSSC
modifications: C-terminal cysteine coupled to maleimide-DOTA chelating 177Lu
notes: also called Inventive 1
B2 showed a Kd [4] of 0.485 nM and a Kd [5] of 33 nM.

B3: MG-DEAVDANS-ADAPT6-(SSSG)3-ABD035-GSSC-HPEM-125I (designed binder)
chain: MGDEAVDANSLAAAKETALYHLDRLGVADAYKDLIDKAKTVEGVKARYFEILHALPSSSGSSSGSSSGLAEAKVLANRELDKYGVSDFYKRLINKAKTVEGVEALKLHILAALPGSSC
modifications: C-terminal cysteine coupled to 125I-labelled ((4-hydroxyphenyl)ethyl)maleimide (HPEM)
notes: also called Inventive 2
In the case of B3, the Kd [4] is reported as 0.6 nM and the Kd [5] is reported as 36 nM.

B4: MG-DEAVDANS-ABD35-(SSSG)5-ADAPT6-GSSC (designed binder)
chain: MGDEAVDANSLAEAKVLANRELDKYGVSDFYKRLINKAKTVEGVEALKLHILAALPSSSGSSSGSSSGSSSGSSSGLAAAKETALYHLDRLGVADAYKDLIDKAKTVEGVKARYFEILHALPGSSC
notes: also called ABD035-(SSSG)5-ADAPT6
In the case of B4, the Kd [1] is reported as 0.052 nM and the Kd [3] is reported as 4.32 nM.

B5: MGDEAVDANS-ADAPTNeg-(SSSG)3-ABD035-GSSC (designed binder)
chain: MGDEAVDANSLAEAKVLANRELDKYGVADAYKNLINNAKTVEGVKARIDEILAALPSSSGSSSGSSSGLAEAKVLANRELDKYGVSDFYKRLINKAKTVEGVEALKLHILAALPGSSC
B5: no binding [6].

B6: MG-DEAVDANS-ABD035-(SSSG)3-ADAPT6-GSSC-HPEM-125I (designed binder)
chain: MGDEAVDANSLAEAKVLANRELDKYGVSDFYKRLINKAKTVEGVEALKLHILAALPSSSGSSSGSSSGLAAAKETALYHLDRLGVADAYKDLIDKAKTVEGVKARYFEILHALPGSSC
modifications: C-terminal cysteine coupled to 125I-labelled ((4-hydroxyphenyl)ethyl)maleimide (HPEM)
B6 was tested, and the Kd [4] was 0.15 nM and the Kd [5] was 28 nM.

B7: MG-DEAVDANS-ABD035-(SSSG)3-ADAPT6-GSSC-DOTA-177Lu (designed binder)
chain: MGDEAVDANSLAEAKVLANRELDKYGVSDFYKRLINKAKTVEGVEALKLHILAALPSSSGSSSGSSSGLAAAKETALYHLDRLGVADAYKDLIDKAKTVEGVKARYFEILHALPGSSC
modifications: C-terminal cysteine coupled to maleimide-DOTA chelating 177Lu
Work on B7 yielded a Kd [4] of 0.432 nM and a Kd [5] of 38 nM.

B8: MG-DEAVDANS-ABD035-(SSSG)3-ADAPT6-GSSC (designed binder)
chain: MGDEAVDANSLAEAKVLANRELDKYGVSDFYKRLINKAKTVEGVEALKLHILAALPSSSGSSSGSSSGLAAAKETALYHLDRLGVADAYKDLIDKAKTVEGVKARYFEILHALPGSSC
notes: also called ABD035-ADAPT6
In the case of B8, the Kd [1] is reported as 0.0521 nM, the Kd [2] is reported as 1.83 nM and the Kd [3] is reported as 5.2 nM.

B9: MG-DEAVDANS-ADAPT6-GSSC (designed binder)
chain: MGDEAVDANSLAAAKETALYHLDRLGVADAYKDLIDKAKTVEGVKARYFEILHALPGSSC
notes: also called non-fused ADAPT6; unfused control
B9: no binding (tested: 50 nM) [7]; no binding (tested: 50 nM) [8]; binds [9].

B10: MG-DEAVDANS-ADAPT6-GSSC-HPEM-125I (designed binder)
chain: MGDEAVDANSLAAAKETALYHLDRLGVADAYKDLIDKAKTVEGVKARYFEILHALPGSSC
modifications: C-terminal cysteine coupled to 125I-labelled ((4-hydroxyphenyl)ethyl)maleimide (HPEM)
notes: Radioiodinated form of the non-fused control
B10 was tested, and the Kd [4] was 0.41 nM and the Kd [5] was 27 nM.

B11: MG-DEAVDANS-ADAPT6-(SSSG)5-ABD35-GSSC (designed binder)
chain: MGDEAVDANSLAAAKETALYHLDRLGVADAYKDLIDKAKTVEGVKARYFEILHALPSSSGSSSGSSSGSSSGSSSGLAEAKVLANRELDKYGVSDFYKRLINKAKTVEGVEALKLHILAALPGSSC
notes: also called ADAPT6-(SSSG)5-ABD035
B11 showed a Kd [1] of 0.0538 nM, a Kd [2] of 1.8 nM and a Kd [3] of 4.45 nM.

B12: MG-DEAVDANS-ADAPT6-GSSC-DOTA-177Lu (designed binder)
chain: MGDEAVDANSLAAAKETALYHLDRLGVADAYKDLIDKAKTVEGVKARYFEILHALPGSSC([maleimide-DOTA])
modifications: also: 177Lu chelated by DOTA
B12 showed a Kd [4] of 0.337 nM and a Kd [5] of 41 nM.

From patent US20230107890A1 (HOBER BIOTECH, published 2023)
